Assay results from patent US20030082638A1, “Methods for screening osteogenic compounds” (priority 2001, published 2003).

What was measured:
[1] = system: Primary calvarial osteoblasts; assay: Alkaline phosphatase (AP) activity in osteoblasts following GST-RANKL exposure; assay type: cell-based; conditions: 50 ng/ml
Description: AP activity following RANKL exposure in osteoblasts. Primary calvarial osteoblasts were cultured in MEM containing 15% FBS, 50 μM ascorbic acid, and 10 mM β-glycerophosphate. Cells were maintained at 37° C., with daily replenishment of media and cytokines. Osteoblast alkaline phosphatase (AP) activity, a direct measure of osteoblast differentiation and function, was quantitated by addition of a calorimetric substrate, 5.5 mM p-nitrophenyl phosphate. The cells were then exposed to GST-RANKL, administered in different regimens. Pulsatile exposure to 50 ng/ml GST-RANKL was provided as 1, 3, 6, 8, or 24 hours of total exposure per 48-hour treatment window. After 4 such 48-hour treatments, AP activity was quantitated (±S.D.) and normalized to total protein levels.

ERK [2] = assay: Western blot of ERK phosphorylation in murine osteoclast precursors; assay type: cell-based
Description: (§1) GST-RANKL rapidly activates MAP kinases in murine osteoclast precursors. Wild type C57BL/6 mice were purchased from Harlan Industries (Indianapolis, Ind.). For the isolation of osteoclast precursors, bone marrow macrophages (BMMs) were isolated from whole bone marrow of four to six week old mice and incubated in tissue culture dishes at 37° C. in 5% CO2. After 24 hours in culture, the non-adherent cells were collected and layered on a Ficoll Hypaque gradient and the cells at the gradient interface were collected. Cells were replated at 65,000/cm^2 in α-minimal essential medium, supplemented with 10% heat inactivated fetal bovine serum, at 37° C. in 5% CO2 in the presence of recombinant mouse M-CSF (10 ng.ml). Cells were treated with GST-RANKL on day 4 or 5. In the experiments addressing the activation of Akt, the cells were cultured in serum and M-CSF free medium for 24 hours prior to GST-RANKL stimulation.
(§2) Immunoblotting (Western blotting) of osteoclast precursors was performed according to the following instructions. Cytokine-treated or control monolayers of BMMs were washed twice with ice-cold PBS. Cells were lysed in the buffer containing 20 mM Tris (pH 7.5),150 mM NaCl, 1 mM EDTA, 1 mM EGTA, 1% Triton X-100, 2.5 mM sodium pyrophoshate, 1 mM β-glycerophosphate, 1 mM Na3PO4, 1 mM NaF, and 1×protease inhibitor cocktail. Fifty μg of cell lysates were boiled in the presence of SDS sample buffer (0.5 M Tris-HCl, pH 6.8, 10% w/v SDS, 10% glycerol, 0.05% w/v bromphenol blue) for 5 minutes and separated on SDS-PAGE, using 8% gels. Proteins were transferred to nitrocellulose membranes using a semi-dry blotter (Bio-Rad, Richmond, Calif.) and incubated in blocking solution (5% non-fat dry milk in tris-buffered saline containing 0.1% Tween 20) for 1 hour to reduce nonspecific binding. Membranes were then exposed to primary antibodies overnight at 4° C., washed three times, and incubated with secondary goat anti-mouse or rabbit IgG horseradish peroxidase-conjugated antibody for 1 hour. […]

Akt [3] = assay: Western blot of Akt phosphorylation in murine osteoblasts; assay type: cell-based
Description: (§3) GST-RANKL-induced activation of MAP kinases is prolonged in murine osteoblasts. Primary osteoblasts were isolated from neonatal murine calvaria by sequential enzymatic digestion. Briefly, calvaria were minced and incubated at room temperature for 20 minutes with gentle shaking in an enzymatic solution containing 0.1% collagenase, 0.05% trypsin, and 4 mM NA2EDTA in calcium- and magnesium-free phosphate buffered saline (PBS). This procedure was repeated to yield a total of six digests. The cells isolated from the last four to six digests were cultured in MEM containing 15% FBS, 50 μM ascorbic acid, and 10 mM β-glycerophosphate. Cells were maintained at 37° C. in a humidified atmosphere containing 6% C02, with daily replenishment of media and cytokines.
(§4) Following treatment with GST-RANKL at the indicated times and dosages, cells were lysed in RIPA buffer containing 10 mM Tris-HCl pH 7.4, 150 mM NaCl, 1% Nonidet P-40, 0.2% sodium deoxycholate, and 1 mM EDTA, with 1 mM Na3PO4, 1 mM NaF, and 1×protease inhibitor cocktail added immediately prior to use. Protein concentration was quantitated and standardized by Micro BCA Protein Assay (Pierce). […] Levels of total and phosphorylated ERK, JNK, p38, Akt, and IkBα were determined using primary and secondary antibodies according to the manufacturer's established protocols, with conventional chemiluminiscent detection. […]

IkBα = assay: Western blot of IkBα phosphorylation in murine osteoblasts; assay type: cell-based
Description: as §3, §4

ERK [4] = assay: Western blot of ERK phosphorylation in murine osteoblasts; assay type: cell-based
Description: as §3
(§5) Following treatment with GST-RANKL at the indicated times and dosages, cells were lysed in RIPA buffer containing 10 mM Tris-HCl pH 7.4, 150 mM NaCl, 1% Nonidet P-40, 0.2% sodium deoxycholate, and 1 mM EDTA, with 1 mM Na3PO4, 1 mM NaF, and 1×protease inhibitor cocktail added immediately prior to use. Protein concentration was quantitated and standardized by Micro BCA Protein Assay (Pierce). Lysates were denatured by heat in Laemmli buffer, resolved by SDS-PAGE, and transferred onto nitrocellulose. Levels of total and phosphorylated ERK, JNK, p38, Akt, and IkBα were determined using primary and secondary antibodies according to the manufacturer's established protocols, with conventional chemiluminiscent detection. Membranes were stripped between hybridizations in PBS containing […] β-mercaptoethanol and 2% SDS.

[5] = system: Neo-natal mouse calvariae; assay: Ex vivo stimulation of bone formation in whole calvarial organ culture; assay type: cell-based
Description: One commonly used assay is a neonatal mouse calvaria assay. Briefly, four days after birth, the front and parietal bones of ICR Swiss white mouse pups are removed by microdissection and split along the sagittal suture. The bones are then incubated in a specified medium, wherein the medium contains either test or control compounds. Following the incubation, the bones are removed from the media, and fixed in 10% buffered formalin for 24-48 hours, decalcified in 14% EDTA for 1 week, processed through graded alcohols, and embedded in paraffin wax. Three micron sections of the calvaria are prepared and assessed using histomorphometric analysis of bone formation or bone resorption. Bone changes are measured on sections cut 200 microns apart. […]
Ex vivo stimulation of bone formation in whole calvarial organ culture. […] Purified GST-RANKL was then assayed for endotoxin contamination by limulus amoebocyte lysate assay, and quantitated for bioactivity by an in vitro osteoclastogenesis readout.
Test compositions were administered for-a period of 12 hours only at the initiation of the culture (1×) or once at initiation and once three days later, again for a duration of 12 hours (2×). After seven days, calvarial thickness was determined histomorphometrically and compared among the various control and experimental groups to assess bone formation. […]

Mice, C3H/HeN = assay: In vivo stimulation of bone formation in mice, subcutaneous administration; parameters: species or system mouse; conditions: 100 micrograms subcutaneously once a day for nine days, vs GST control
Description: In vivo stimulation of bone formation in mice. Mice, C3H/HeN (Harlan, Indianapolis, Ind.) were administered 100 micrograms GST (control) or 100 micrograms GST-RANKL as obtained in Example 1, subcutaneously, once a day for nine days. […] Upper panels illustrate metaphyseal bone, which is shown at higher magnification in lower panels. […] Dual-energy X-ray absorptiometry (DEXA) analysis of GST or GST-RANKL administered mice was also conducted using standard procedures.

JNK [6] = assay: Western blot of JNK phosphorylation in murine osteoblasts; assay type: cell-based
Description: as §3, §4

p38 [7] = assay: Western blot of p38 phosphorylation in murine osteoblasts; assay type: cell-based
Description: as §3, §4

ERK1/2 = assay: Western blot of ERK1/2 activation in murine osteoblast precursors; assay type: cell-based
Description: as §3, §5
GST-RANKL-induced ERk1/2 activation is prolonged in murine osteoblast precursors. Osteoblast precursors were isolated and maintained according to the procedures set forth in Example 5. The immunoblotting was performed in the same manner as immunoblotting in Example 3.

JNK [8] = assay: Western blot of JNK phosphorylation in murine osteoclast precursors; assay type: cell-based; conditions: after GST-RANKL stimulation
Description: as §1
(§6) Immunoblotting (Western blotting) of osteoclast precursors was performed according to the following instructions. Cytokine-treated or control monolayers of BMMs were washed twice with ice-cold PBS. Cells were lysed in the buffer containing 20 mM Tris (pH 7.5),150 mM NaCl, 1 mM EDTA, 1 mM EGTA, 1% Triton X-100, 2.5 mM sodium pyrophoshate, 1 mM β-glycerophosphate, 1 mM Na3PO4, 1 mM NaF, and 1×protease inhibitor cocktail. […]

p38 [9] = assay: Western blot of p38 phosphorylation in murine osteoclast precursors; assay type: cell-based
Description: as §1, §2

c-Fos = assay: Western blot of c-Fos activation following GST-RANKL treatment of cells; assay type: cell-based; conditions: osteoblasts and osteoblast precursor cells; FIG. 9, 0-120 minutes
Description: Time points at which activation was measured were 0, 30, 60 and 120 minutes following exposure of cells to GST-RANKL. B-actin was used as a control.

Akt [10] = assay: Western blot of Akt phosphorylation in murine osteoclast precursors; assay type: cell-based
Description: as §1, §6

Mice = assay: In vivo stimulation of bone formation in mice, intramedullary femur injection, DEXA; parameters: species or system mouse; conditions: 100 micrograms intramedullary once a day for nine days; versus GST control; day 9
Description: In vivo stimulation of bone formation in mice results in 24% increase. Mice were anesthetized with a Ketamine/Xylazine cocktail (10 mg/kg ketamine and 10 mg/kg xylazine IP) and placed in left lateral recumbancy. The major trochanter and lateral femoral condyle of the right femur were identified and the intramedullary injection site was equidistant between these landmarks. Injections of 100 micrograms GST (control) or 100 micrograms GST-RANKL were made once a day for nine days with 29 gauge needles on tuberculin syringes.
On day 9 the mice were re-anesthetized with Ketamine/Xylazine cocktail (10 mg/kg ketamine and 10 mg/kg xylazine IP) and dual energy x-ray absorptiometry (DEXA, Piximus) analysis was done on each animal. Plain radiographs were taken immediately following DEXA analysis (Faxitron, KV 0.15, time=20 sec). Animals were sacrificed by CO2 asphyxiation and both femurs harvested for histological analysis. The femurs were fixed in 10% buffered formalin for 48 hours and decalcified for 1 week. The results, showing a 24% increase in bone density of the femur of GST-RANKL treated mice versus the control, are shown in FIG. 10.

[11] = after RANK/GST-RANKL interaction

B1: GST-RANKL: fusion protein of glutathione S-transferase (GST) and murine RANKL residues 158-316, expressed in Escherichia coli, affinity purified (protein)
chain: KPEAQPFAHLTINAASIPSGSHKVTLSSWYHDRGWAKISNMTLSNGKLRVNQDGFYYLYANICFRHHETSGSVPTDYLQLMVYVVKTSIKIPSSHNLMKGGSTKNWSGNSEFHFYSINVGGFFKLRAGEEISIQVSNPSLLDPDQDATYFGAFKVQDID
modifications: left off: a dimerising Fc or GST
exposure window giving the maximum anabolic effect (AP activity) ([1]; 1, 3, 6, 8 or 24 hours exposure per 48-hour window, 4 treatments): 8 h | AP activity ([1]; administered in an intermittent fashion): increase | time at which ERK phosphorylation was detected (ERK [2]; after GST-RANKL stimulation): 5 min | time of peak ERK phosphorylation (ERK [2]; [11]): 10 min | time at which ERK phosphorylation was undetectable (ERK [2]; after the interaction): 30 min | Akt activation at the time of GST-RANKL stimulation (Akt [3]): detectable | duration for which Akt activation could be detected (Akt [3]; after stimulation): at least 60 minutes | time until which IkBα phosphorylation increased (end of the assay) (IkBα): 60 min | time at which IkBα phosphorylation was detected (IkBα; after stimulation): 10 min | time at which ERK activation could still be detected (ERK [4]; after GST-RANKL stimulation): 60 min | time by which both ERKs were activated (ERK [4]; after GST-RANKL stimulation): ≤ 5 min | time of peak ERK activation (ERK [4]; [11]): 10 min | calvarial thickness at the highest dose tested ([5]; 100 ng/ml, after seven days): doubled | calvarial thickness ([5]; administered 1× or 2× for 12 hours, histomorphometry after seven days): dose-dependent increase | bone mineral density (DEXA) (Mice, C3H/HeN; tibial metaphyses): significant increase | bone mass (histological examination of tibia) (Mice, C3H/HeN): marked increase | cortical thickness (Mice, C3H/HeN): massive increase | numbers of activated osteoblasts (histological examination of tibia) (Mice, C3H/HeN): net increase | JNK activation at the time of GST-RANKL stimulation (JNK [6]): detectable | duration for which JNK activation could be detected (JNK [6]; after stimulation): at least 60 minutes | p38 activation at the time of GST-RANKL stimulation (p38 [7]): detectable | duration for which p38 activation could be detected (p38 [7]; after stimulation): at least 60 minutes | time of peak kinase activation as stated in the description (ERK1/2; osteoblast precursor cells, GST-RANKL stimulation): 5 to 10 min | time up to which ERK activation increased (length of the assay) (ERK1/2; osteoblast precursors): 60 min | time at which ERK activation was first detected (ERK1/2; osteoblast precursors, after GST-RANKL stimulation): 10 min | time at which JNK was phosphorylated (JNK [8]): 15 min | time by which phosphorylated JNK was undetectable (JNK [8]): ≤ 30 min | time at which p38 phosphorylation was detected (p38 [9]; after GST-RANKL stimulation): 5 min | time of peak p38 phosphorylation (p38 [9]; [11]): 10 min | time at which p38 phosphorylation was undetectable (p38 [9]; after the interaction): 30 min | activation of c-Fos (c-Fos): prolonged activation | Akt phosphorylation at the time of GST-RANKL stimulation (Akt [10]; 0 minutes): detectable phosphorylation | time of peak Akt activation (Akt [10]; after GST-RANKL stimulation): 15 min | increase in bone density of the femur (DEXA) (Mice): 24%
